Experiment [1] addresses HLA-B*15:01. The experiment is described as follows: IEDB peptide-MHC binding, purified MHC/direct/fluorescence; filed as Kd, often an IC50 or EC50 that approximates it; ≥ and ≤ were set here for values at or beyond the usual limits of such assays.
Experiment [2] has as its target HLA-A*24:02. The description is as above. The note with it: source organism: Influenza A virus (A/swine/Hong Kong/5190/99(H3N2)).
The target in experiment [3] is HLA-B*46:01. Described as above.
Experiment [4] concerns the target HLA-A*02:01. The description is as above.
Experiment [5] deals with HLA-B*18:01. Described as above.
The target of experiment [6] is HLA-B*07:02. The description is as above. The note with it: source organism: Influenza A virus (A/swine/Hong Kong/5190/99(H3N2)).
For experiment [7], the target named is HLA-A*03:01. The description is as above.
For experiment [8], the target named is HLA-A*02:11. The experiment is described as above. Particulars: source organism: Influenza A virus(A/swine/Henan/5/2004(H9N2)).
The target in experiment [9] is HLA-A*02:03. The experiment is described as above.
Experiment [10] addresses HLA-B*58:01. Described as above.
For experiment [11], the target named is HLA-A*02:19. The experiment is described as above.
Experiment [12] deals with HLA-A*01:01. The experiment is described as above.
The target in experiment [13] is HLA-B*40:01. Described as above.
Experiment [14] has as its target HLA-A*26:01. Described as above.
In experiment [15] the target is HLA-B*44:02. The description is as above. Particulars: source organism: Influenza A virus (A/swine/Hong Kong/5190/99(H3N2)).
In experiment [16] the target is HLA-B*15:09. Described as above. The note with it: source organism: Influenza A virus(A/swine/Henan/5/2004(H9N2)).
Experiment [17] deals with HLA-B*27:05. The experiment is described as above.
The target of experiment [18] is HLA-A*31:01. The experiment is described as follows: IEDB peptide-MHC binding, purified MHC/competitive/fluorescence; filed as Kd, often an IC50 or EC50 that approximates it; ≥ and ≤ were set here for values at or beyond the usual limits of such assays. Particulars: source organism: Influenza A virus (A/Fort Monmouth/1/1947-mouse adapted(H1N1)).
Experiment [19] concerns the target HLA-B*08:02. The experiment is described as follows: IEDB peptide-MHC binding, purified MHC/direct/fluorescence; filed as Kd, often an IC50 or EC50 that approximates it; ≥ and ≤ were set here for values at or beyond the usual limits of such assays.
Experiment [20] has as its target HLA-B*15:01. The experiment is described as follows: IEDB peptide-MHC binding, purified MHC/competitive/radioactivity; filed as Kd, often an IC50 or EC50 that approximates it; ≥ and ≤ were set here for values at or beyond the usual limits of such assays. Particulars: source organism: Dengue virus 2 Jamaica/1409/1983.
Experiment [21] concerns the target HLA-A*11:01. The experiment is described as follows: IEDB peptide-MHC binding, purified MHC/direct/fluorescence; filed as Kd, often an IC50 or EC50 that approximates it; ≥ and ≤ were set here for values at or beyond the usual limits of such assays. Particulars: source organism: Mycobacterium tuberculosis.
Experiment [22] deals with HLA-A*69:01. The experiment is described as above. The note with it: source organism: Mycobacterium tuberculosis.
The target in experiment [23] is HLA-B*57:01. The experiment is described as above. Particulars: source organism: Mycobacterium tuberculosis.
The target of experiment [24] is HLA-A*31:01. The experiment is described as above. Particulars: source organism: Mycobacterium tuberculosis.
The target in experiment [25] is HLA-B*15:17. Described as above. The note with it: source organism: Mycobacterium tuberculosis.
Experiment [26] has as its target HLA-B*48:01. The experiment is described as above. The note with it: source organism: Mycobacterium tuberculosis.
Experiment [27] has as its target HLA-B*51:01. The description is as above. Particulars: source organism: Mycobacterium tuberculosis.
The target in experiment [28] is HLA-B*39:01. The experiment is described as follows: IEDB peptide-MHC binding, purified MHC/competitive/fluorescence; filed as Kd, often an IC50 or EC50 that approximates it; ≥ and ≤ were set here for values at or beyond the usual limits of such assays.
The target in experiment [29] is HLA-A*29:02. The experiment is described as follows: IEDB peptide-MHC binding, purified MHC/direct/fluorescence; filed as Kd, often an IC50 or EC50 that approximates it; ≥ and ≤ were set here for values at or beyond the usual limits of such assays. Particulars: source organism: Zaire ebolavirus.
The target in experiment [30] is HLA-A*02:12. The experiment is described as above. The note with it: source organism: Zaire ebolavirus.
The target in experiment [31] is HLA-A*68:02. The experiment is described as above. The note with it: source organism: Zaire ebolavirus.
In experiment [32] the target is HLA-A*24:03. The description is as above. The note with it: source organism: Zaire ebolavirus.
Experiment [33] deals with HLA-B*15:01. The experiment is described as follows: IEDB peptide-MHC binding, purified MHC/competitive/fluorescence; filed as Kd, often an IC50 or EC50 that approximates it; ≥ and ≤ were set here for values at or beyond the usual limits of such assays. The note with it: source organism: Zaire ebolavirus.
Experiment [34] addresses HLA-B*27:03. Described as above. The note with it: source organism: Zaire ebolavirus.
The target of experiment [35] is HLA-B*46:01. The description is as above. The note with it: source organism: Zaire ebolavirus.
In experiment [36] the target is HLA-A*02:01. Described as above. Particulars: source organism: Zaire ebolavirus.
Experiment [37] concerns the target HLA-A*69:01. The description is as above. The note with it: source organism: Zaire ebolavirus.
Experiment [38] concerns the target HLA-B*57:01. Described as above. Particulars: source organism: Zaire ebolavirus.
The target of experiment [39] is HLA-B*51:01. Described as above. Particulars: source organism: Zaire ebolavirus.
The target in experiment [40] is HLA-A*26:01. The description is as above. The note with it: source organism: Zaire ebolavirus.
[41] abbreviates: source organism: Influenza A virus (A/swine/Hong Kong/5190/99(H3N2)).
Setting [42] is: source organism: Influenza A virus (A/Puerto Rico/8/34/Mount Sinai(H1N1)).
The mark [43] stands for this setting: source organism: Influenza A virus(A/swine/Henan/5/2004(H9N2)).
[44] abbreviates: source organism: Mycobacterium tuberculosis.
The mark [45] stands for this setting: source organism: Mycobacterium tuberculosis C.
The mark [46] stands for this setting: source organism: Zaire ebolavirus.

As usually defined, the Kd is a measure of binding affinity in units of concentration. For the sequence YMFESKSMK, the Kd in [1] (setting [41]) was at least 20 µM; in [2] it was at least 20 µM; in [3] (setting [41]), at least 20 µM; in experiment [4] (setting [42]), 0.478 µM; in experiment [5] (setting [41]) it was at least 20 µM; in experiment [6], at least 20 µM. The Kd in experiment [7] (setting [42]) was 0.232 µM; in [8], 0.003 µM; in [9] (setting [43]) it was 0.024 µM; in [10] (setting [41]), at least 20 µM; in experiment [11] (setting [43]) it was at least 20 µM; in [12] (setting [41]) it was at least 20 µM. For the same sequence, the Kd in [13] (setting [41]) was at least 20 µM; in experiment [14] (setting [43]), at least 20 µM; in [15], at least 20 µM; in experiment [16], at least 20 µM; in [17] (setting [42]), 0.155 µM; in experiment [18], 0.0212 µM.

Turning to QLKGMSYSM, the Kd in experiment [19] (source organism: Dengue virus 2 Thailand/16681/84) is at least 20 µM; in experiment [20] it was 0.0539 µM.

Turning to KPARGGSSI, the dissociation constant (Kd) in experiment [1] (setting [44]), in [21], in experiment [3] (setting [44]), in experiment [4] (setting [44]), in experiment [5] (setting [44]) and in [7] (setting [44]) was at least 20 µM each time. Also, the Kd in [22], in [23], in experiment [10] (setting [44]), in [19] (setting [45]), in experiment [24] and in [25] was at least 20 µM each time. Moreover, the equilibrium dissociation constant (Kd) is at least 20 µM in [26]; at least 20 µM in experiment [12] (setting [44]); at least 20 µM in experiment [13] (setting [44]); 2.62 µM in [27]; at least 20 µM in experiment [14] (setting [45]); at least 20 µM in experiment [17] (setting [44]). In experiment [28] (source organism: Parafrankia sp. EAN1pec), this sequence displayed a Kd of 2.76 µM.

With LEFNSSLAI, the Kd in [7] (setting [46]), in [29], in experiment [30], in experiment [9] (setting [46]), in experiment [31] and in experiment [32] was at least 20 µM each time. The equilibrium dissociation constant (Kd) in experiment [11] (setting [46]) is at least 20 µM; in experiment [13] (source organism: Ebola virus - Gabon (1994-1997)), 0.0258 µM; in experiment [33] it was at least 20 µM; in experiment [34] it was at least 20 µM; in experiment [35], at least 20 µM; in [36], at least 20 µM. For the same sequence, the Kd in experiment [37], in experiment [28] (setting [46]), in experiment [38], in experiment [39] and in [40] was at least 20 µM each time.

Values taken from the Immune Epitope Database (IEDB).
